This is an account of results in PMC9456187, “The Ambivalence of Connexin43 Gap Peptides in Cardioprotection of the Isolated Heart against Ischemic Injury” (International Journal of Molecular Sciences, 2022).

Experiment [1] addresses RadA-EL1 (extracellular loop 1 of connexin43 grafted into the monomeric ATPase domain of Pyrococcus furiosus … (Pyrococcus furiosus | , Only the grafted connexin43 EL1 loop (the binding part) is given. It was displayed on the His-tagged monomeric RadA ATPase domain of Pyrococcus furiosus, treated here as a carrier. The scaffold limits)). In words: SPR; Biacore T200; his-tagged RadA-EL1 captured on NTA surface (about 200 RU) as ligand, Gap27 injected as analyte at 30 µL/min; 25 °C; 50 mM HEPES pH 7.5, 500 mM NaCl, 0.005% Tween-20; reference channel without nickel; 1:1 binding model. The following applies: both partners purified. In general terms: In SPR one partner is held on a chip, and binding of the other changes the refractive index at the surface.

Experiment [2] concerns the target RadA-EL2 (extracellular loop 2 of connexin43 grafted into the monomeric ATPase domain of Pyrococcus furiosus … (Pyrococcus furiosus | , Only the grafted connexin43 EL2 loop (the binding part) is given. It was displayed on the His-tagged monomeric RadA ATPase domain of Pyrococcus furiosus, treated here as a carrier. The scaffold limits)). In words: SPR; Biacore T200; his-tagged RadA-EL2 captured on NTA surface (about 200 RU) as ligand, Gap26 injected as analyte at 30 µL/min; 30 °C; 50 mM HEPES pH 7.5, 500 mM NaCl, 0.005% Tween-20, 0.1 mM TCEP; reference channel without nickel; 1:1 binding model. The following applies: both partners purified.

Sequence of RadA-EL1 (extracellular loop 1 of connexin43 grafted into the monomeric ATPase domain of Pyrococcus furiosus … (Pyrococcus furiosus | , Only the grafted connexin43 EL1 loop (the binding part) is given. It was displayed on the His-tagged monomeric RadA ATPase domain of Pyrococcus furiosus, treated here as a carrier. The scaffold limits)) (chain, as listed by the source): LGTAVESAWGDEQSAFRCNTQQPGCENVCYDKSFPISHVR
Sequence of RadA-EL2 (extracellular loop 2 of connexin43 grafted into the monomeric ATPase domain of Pyrococcus furiosus … (Pyrococcus furiosus | , Only the grafted connexin43 EL2 loop (the binding part) is given. It was displayed on the His-tagged monomeric RadA ATPase domain of Pyrococcus furiosus, treated here as a carrier. The scaffold limits)) (chain, as listed by the source): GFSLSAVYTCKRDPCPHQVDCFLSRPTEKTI

B1: Gap27 (peptide)
peptide: SRPTEKTIFII
notes: connexin43 mimetic peptide, 11 amino acids, analogue of the second extracellular loop (EL2) of connexin43; The peptide was tested on the RadA-EL1 construct; also called G27; connexin mimetic peptide Gap27; source: bought: Pepnome Inc., Hong Kong (peptide)
For orientation: Kd means the constant that tells how readily two partners part at equilibrium. What is called koff is the rate constant with which the complex falls apart. High values mean a short-lived complex, low ones a long-lived complex. In experiment [1], B1 yielded a Kd of 6 µM and a koff of 0.061 s⁻¹.

B2: Gap26 (peptide)
peptide: VCYDKSFPISHVR
notes: connexin43 mimetic peptide, 13 amino acids, analogue of the first extracellular loop (EL1) of connexin43; The peptide was tested on the RadA-EL2 construct; also called G26; connexin mimetic peptide Gap26; source: bought: Pepnome Inc., Hong Kong (peptide)
With B2, in experiment [2], the Kd worked out at 8 µM and the koff stood at 0.0043 s⁻¹.
